Source: publication PMC8145704 (Microorganisms, 2021)
Ends that are not written are not given here.

Columns and labels:
Conditions in all cases: both partners purified
[1] = target: T1, WT-HBc capsids (hepatitis B core protein, genotype D; strain ayw; GenBank: V01460.1) (Hepatitis B virus (genotype D; strain …, UniProt P03146 1-183); assay: peptide or protein array
T1 construct: also called HBc-WT; HBc-CLPs; copies: 240

[2] = target: T1, WT-HBc capsids (hepatitis B core …); assay: ITC
P5T-HBc capsids [3] = target: T2, P5T-HBc capsids (Hepatitis B virus (genotype D; strain …, UniProt P03146 1-183, P5T); assay: cryo-EM structure
T2 construct: copies: 240

F97L-HBc capsids [4] = target: T3, F97L-HBc capsids (Hepatitis B virus (genotype D; strain …, UniProt P03146 1-183, F97L); assay: cryo-EM structure
T3 construct: copies: 240

L60V-HBc capsids [5] = target: T4, L60V-HBc capsids (Hepatitis B virus (genotype D; strain …, UniProt P03146 1-183, L60V); assay: cryo-EM structure
T4 construct: copies: 240

P5T-HBc capsids [6] = target: T2, P5T-HBc capsids; assay: ITC
F97L-HBc capsids [7] = target: T3, F97L-HBc capsids; assay: ITC
L60V-HBc capsids [8] = target: T4, L60V-HBc capsids; assay: ITC

B1: Peptide P2 “GSLLGRMKGA” on µSPOT peptide microarray (peptide)
peptide: GSLLGRMKGA
modifications: not fully specified (C-terminus)
**Q.** Does B1 bind [1]?
**A.** binds

B2: Peptide P1 “MHRSLLGRMKGA” (peptide)
peptide: MHRSLLGRMKGA
notes: source: synthetic peptide
**Q.** With B2 as the binder, how does the Kd [2] read?
**A.** 26 µM

**Q.** What about the dH [2] of the same binder?
**A.** -9 kcal/mol

**Q.** And the “stoichiometry N” value [2]?
**A.** 0.45 peptide/HBc

**Q.** Does B2 bind (P5T-HBc capsids [3])?
**A.** binds

**Q.** Does B2 bind (F97L-HBc capsids [4])?
**A.** binds

**Q.** Does B2 bind (L60V-HBc capsids [5])?
**A.** binds

B3: Peptide “SLLGRM” (core binding motif) (peptide)
peptide: H-SLLGRM-NH2
notes: shortened stretch of P2; source: synthetic peptide (Fmoc solid-phase synthesis, HPLC purified)
**Q.** What does the source list for B3?
**A.** Kd [2]: 130 µM; dH [2]: -8.3 kcal/mol; stoichiometry N [2]: 0.25 peptide/HBc

B4: Peptide P2 “GSLLGRMKGA” (peptide)
peptide: GSLLGRMKGA
notes: source: synthetic peptide
**Q.** With B4 as the binder, how does the dH [2] read?
**A.** -14.4 kcal/mol

**Q.** And the “stoichiometry N” value [2]?
**A.** 0.48 peptide/HBc

**Q.** What about the dH (P5T-HBc capsids [6]) of the same binder?
**A.** -7.7 kcal/mol

**Q.** What about the “stoichiometry N” value (P5T-HBc capsids [6]) of the same binder?
**A.** 0.45 peptide/HBc

**Q.** And the dH (F97L-HBc capsids [7])?
**A.** -9.9 kcal/mol

**Q.** And the “stoichiometry N” value (F97L-HBc capsids [7])?
**A.** 0.52 peptide/HBc

**Q.** And the dH (L60V-HBc capsids [8])?
**A.** -6.6 kcal/mol

**Q.** What about the “stoichiometry N” value (L60V-HBc capsids [8]) of the same binder?
**A.** 0.5 peptide/HBc
